Here are results for one substance from doi:10.1101/2024.11.01.621267.

For this test, the target named is recombinant full-length RACK1 protein (ITC) (human) (UniProt P63244). The experiment in a line: ITC; LARP4 peptide (400 μM; 300 μM for 600–625) injected into RACK1 (40 μM; 30 μM) in the cell; iTC200; 298K; 20 mM HEPES, 300 mM NaCl, 10% glycerol, 1 mM DTT pH 7.5; triplicate.

As usually defined, the Kd is the constant that tells how readily two partners part at equilibrium. The term stoichiometry N denotes the number of molecules, sites or subunits per partner or assembly. “HsLARP4 peptide 612–637 (from UniProt Q71RC2-1 612-637)”: the Kd came out at 2100 nM, the dH was -8.6 kcal/mol and the stoichiometry N turned out to be 0.9.
